According to the DeepSol protein solubility set:

Test: soluble on expression in E. coli; label from the status in PepcDB or PDB records

Row | Sequence | soluble on expression in E. coli
1 | MGSDKIHHHHHHMSSIFEKYSVRRVINASGKMTILGVSTVDKEVIEAIGEGCKNFFIIEELINKTGEYIANLLGCESALIVSSASAGIAQSVGAMIAKDDMSLVYNVNNPKKQVKREIIIPKGHNVDYGVPVEVMIRLGGGEVVEAGYANMCNKEHIIREINENTAAIMYIKSHHCVQKSMLSVLDAVQVAKEYNLPLIVDAAAEEDLNVYYELGADLVIYSGAKAIEGPSSGLVIGKKKYIDNVKLQSKGIGRAMKIGKENIVGLTCAIERYISNDKVTLKEMEDKLNPFIDKINTIKGVSASITRDSAGREILRGEIDFNEDIINKSTQQIINELRSGEIAIYTRDYKANEGKIEIDIRSVTGSDLDTIYNRIKNIVES | not soluble
2 | MGSDKIHHHHHHMSISLNTCILILKEHHLLKSSAVQDTVATKMDYVSYDSRDIQTNTLFFCKGAGFRPTYLSMAKSNGANCYVAEQPYPEGKGMHALIVRDVSKAMALLSAAFFRFPQDDLYVVAFTGTKGKTTSAYFLKGMLDQANGGRTALISSVNDVVGPKPEDSFKSSLTTPESLDLFRDMRTAVDNGMTHLVMEVSSQAYKKNRVFGLTYDLGFFLNISPDHIGPNEHPNFADYLHCKLQLMVNSRKCIINAETANFNEVYAAATTTTNPDSIYLFAREDFENPDLDVPIDFRFASQELDMKETRFKLFCATDKAKKLPINGDYTLKMLGDFNESNGTAAIIGAGLAGLNHDQCAKGIRNVTIPGRMQTERTKEHGMVVVDYAHNKASMMALMRFMQNEFNDPKIIVVVGAPGDKGVSRRPGFSESLSAYADKAFLTTDDPGFEDPKSIAEEIDAGIDHSKCDVTIELDRKKAIHDAIASAGPDDVVLICGKGADAFQKIRGVDTPYPSDIVVAQQVINELEGQDEHFRK | not soluble
3 | MFVFMLLLLLPFTISKAKDFPANPIEKAGYKLDFSDEFNGPTLDREKWTDYYLPHWCKDPESAKANYRFENGSLVEYITEDQKPWCPEHDGTVRSSAIMSFDKSWIHNFSGTTDNHERNEWRGYTTKYGYFEIRAKLSNTGGGGHQAWWMVGMQDDTNDWFNSKQTGEIDILETFFSKKDTWRIAAYGWNDPNFQTSWTISEDKVPSGDPTSEYHIYAMEWTPTALKFYYDNELFKVIYGSPDYEMGTILNIYTDAGSGAHNDVWPKEWAIDYMRVWKPVDGYKESESLNNYLIRNRQTGKFLYIEENNDKVSYGDITLKNEKNAKWSKEYRDGYTLLKNNETGEYLNIENQTGYIEHGKVPKTWWSAQWSEVPVDGYTRFVNRWKPNMSIHTESYEGVLQYGNVPNTYWTSQWQLIPVE | soluble
4 | MLEELTLERFLSHRSAFSLVIDVRSPHEYLESHLPGALNLPVLSDLEHERVGTLYKESPFEARILGASLICANIASALSWLKDSLHPSQKVLIYCARGGQRSLSLALILSSIGYQIARLIGGYKGYRAHVAASWQVPRKESFLTLVGPTGGGKSELIQSLSWSLDIEGLARHKGSSFGAIEGEQPSTKMFQNLLFERLLGLREEPLVAVEGESKRLGNLILPSPLYERYKSAPKVFIDSPLEARIDRTMQEYASISPAFFEGAMQKIARYMNKEAHKAASLAFWQGDLRRCAELLLVEYYDKVYKMEPCEYTILHTSKESTLKELERIKGEILSSVRE | not soluble
5 | MSLKNILIIGANGFTGRRILNDLSVNPIYHVTGCSLRDDICPGKDYRFVRTDIRDENEVRKLFKECRPDIVINTSALSVPDYCETHHAEAEATNVTAVETIAHVCEQYGSRFIHLSTDFVFDGKSTRLYKEEDEAIPVNYYGVTKLKAEKIIASICSNYAIVRVVVVYGKALPGQHGNILQLVANRLRNGETIRVVSDQWRTPTFVGDISVGVEKLMFHTANGIYHICGSECLTIAEIAYRVADFLKLDRSLIEPVTTEEMKEVTPRPRFSGLSIEKAKAEIGYTPRTLEEGMEASEGHHHHHH | soluble
6 | MGSDKIHHHHHHMKEVLEVLPKTMKQLVENCKQYDALEEIRVRIGRPLECIAHGEVFFYDYIVTADDAIYLLNKLSHFSIYTMEEELKRGYVTLRGGHRIGLAGKVITEKSTVKMIRDVSSFNIRIARQKIGIAEPLLPYLYESRWLNTMVIGPPQTGKTTLLRDVARCMSQGVSTSKIPSCKVGIVDERSEIAGCVKGIPQYDFGTRVDVLDACPKAEGMMMMIRSMSPDILIVDEIGRKEDSEAIMEAVHAGVQLFISAHGFSYDDVVKRPSLKAVLELGIFDRFVELSKARGPGTVMQVKDKYGKPVLPHRKAESVC | not soluble
7 | MGSDKIHHHHHHMIERVINNIEKVIKGKREAIEVVVAALLAKGHVLMEDVPGVGKTMLARALALSLGVDFRRVQFTPDLLPTDLTGLYIYDRKKEDFVFKKGPVFTDVLLADEINRATPRTQSALLEAMAEGQVTVDGVTHRLSERFFVIATQNPIEYEGTFPLPEAQLDRFMICVKMGYPDEEAEIQMLTSQEKEHPISQLEPVMNPDELSELQKKVRNVFVSDEVKKYIVDIASATRNHPSLLLGMSPRGSIALMHFSMALAFMDGRDFTLPDDVKRAAVYVIPHRVIQSAESKLKREKKEDIVREILDRVKVVK | not soluble
8 | LFAAIVDNLSDGIYVLQDDRVVYLNERFAQLFGHGDAGSLLMRELDDILPHGEGKEIVGRIHAELLAGEPSSVAWGQPFAHMDGTPVWLEMEARRIRLNGRPAILGVCHDRT | not soluble
9 | MGSDKIHHHHHHMNAQIKIINTANGYMALCQDTPEDITPAWFSVDFWREKSAVVGSSKGRYTTWFVAFEHSHWVLRHYWRGGMMEKFSKDAYFYTGLENTRAMGELRLLDALYREQFAVPKPIAANIVRDGLFYRADIIIERVDGAEDLVAKLTKGTMTQAQWHALGATIAQFHRRGVYHADLNAKNILWQPQQTDSAQERFYLIDFDRGELKTPNAKWQKANLDRLLRSFNKEQGKQPTLAFTPANWAALLEGYHAVVPKV | not soluble
10 | MKPVKVGICGLGTVGGGTFNVLERNAEEIARRAGRGIEVAQIAARRPNPKCDTGATPITADIFDVACNPEIDVVVELIGGYTLAHELVLKAIENGKHVVTANKALIAVHGNEIFAKAREKGVIVAFEAAVAGGIPVIKAIREGLSANRINWLAGIINGTGNFILSEMREKGRTFPDVLAEAQALGYAEADPTFDVEGIDAAHKLTILASIAFGIPLQFDKAYTEGISKLTSADVNYADALGYRIKHLGVARRTESGFELRVHPTLIPSDRLIANVNGVMNAVMVNGDAVGSTLYYGAGAGMEPTASSVVADLVDVVRAMTSDPENRVPHLAFQPDALSDHPILPIEACESAYYLRIQAKDHPGVLAQVATILSERGINIESIMQKEAEEQDGLVPMILVTHRVIEQRINDAIAALEALEGVSGPVVRIRVEQL | soluble
11 | MSRRASKRPAPYPLLCEQKPEDLLVAPVEHKVYQDFEPKRPREFSPVMAQSLPPGEIDFQPSKIIFNAPYNENQESKIKLINTSALRIAYGINTYMKRLRVDTMCTPNCGVLDPSEEILLTISCDAFAFGQVDTTNDRITVEWTNTSEGSTKQFCRDWLDGDGMVRRKTLPIEYSSSPIAQTSSAPLLQASKHGMWLPIGFAASELYDYAKGEPLDRKTCEKNLEKLIKNDRDVDYYEWLNFAKRCRTQNQNLMEEMALGMAFTTAMANKQHRKISRKAEKITEPITTNKAFSIDSAEKFDRALTLPSRKWFMISDVVTDGDVSNWSTANLVTLVRALARTVFDKVAIADPHMMCYATSQNASTYIPIARDFFEGFAEYILGGFGEEQSRDLKFRVRKLVTDVMGNKLDRVRGRHNKMYGNEASEDATRWLREQLRKEDGELKESRLIFPNGSEMMCNYQVNEENPEGSIKSEIFNDEEEVEME | not soluble
12 | MAHHHHHHVDDDDKPGPALYEENALKGKIDDPNSYVPDAVQEAYKNLDSTSTLTEENFGKPYISAKDLKEIMYDHLPGFGTAFHQLVQVICKIGKDNNLLDTIHAEFQASLADGDSPQCALIQITKRVPIFQDVPPPIIHIRSRGDIPRACQKSLRPAPPSPKIDRGWVCLFKMQDGKTLGLKI | soluble
13 | MGPIKTIKKKKRAEKKVDRNVLLAATAAATSASAAAALNNNDDDDDSSSQSLDWWDGFSRRIYGGSTDPKTFESVFKISRKTFDYICSLVKADFTAKPANFSDSNGNPLSLNDRVAVALRRLGSGESLSVIGETFGMNQSTVSQITWRFVESMEERAIHHLSWPSKLDEIKSKFEKISGLPNCCGAIDITHIVMNLPAVEPSNKVWLDGEKNFSMTLQAVVDPDMRFLDVIAGWPGSLNDDVVLKNSGFYKLVEKGKRLNGEKLPLSERTELREYIVGDSGFPLLPWLLTPYQGKPTSLPQTEFNKRHSEATKAAQMALSKLKDRWRIINGVMWMPDRNRLPRIIFVCCLLHNIIIDMEDQTLDDQPLSQQHDMNYRQRSCKLADEASSVLRDELSDQLCGKNSSA | soluble
14 | MSQPCPHCGFQFNCICSLVPKLTSKHEILLLMHPNELTRDTNTGQLLQHCQLNVEQAIWDRKQPPAELLTRLANPSLYPVILFPSEESITLEHVEMQSQQQAKMPLYIILDATWQEARKMINKSRWLEGIPTMGLSALADSQYQLRRNQQQGNLCTFEVAAHLLGQLGEQDNQQQMHTFFTHYLALFQAEKSGHALKSSPRSLEAAALEHHHHHH | not soluble
15 | MAHHHHHHMIAATQVPGLNEISRQAASGSPFPQVLPPRYPANKVSTAGLQSSNHGAAQLVHDVNNVAAEIHHPLITAADYSDRRQLLSHITVLSGQLQRAQLLLRNTPSCVVSDADIARFDPLIAQAEVERLDSALAQLSLLHEMERARSGSLEAEQQQLREERNQLVARVDTLESRSVALETENVQLRSALEVAQQELQVLRVGESALGNKLHAIEQLQRDGGRFDGVNVVIAPPRAVCSTAAKELQLQENIQRLSLLLDMMMDPMYIAFDAGVVWITETEHHRAGGQVCGAALSNAPHDSEELTTTVGGNSPLGNASDATLPQDVVANPPHVVASEVDISLLQQQQQELCRQLDAVRESCRVAERNQERLQDLLLEEQRRTEAMAQEHCKQLQCVHDRVVHERRQVVESLVAEVEEKMRNAFRDGRLYQKQLDERLIHRRSSSTFQSRSGHSSARSTPFASRHKAFGGNGTCKGDGDANSSRSARSPILGG | not soluble
16 | MSLGAQTLEYWVYSDFAQGEALALQQDFIKEFQESHPGVTVNIVGKGDDDLTAGQIAGAASGNLPDVFMNAVGVGAQLVDVGALANIHDKWMAMPEEFRAQFNKGAVENCAPRPEEMYCIPYTGYGTLLFRNLTVLEEAGIDTSAPPADWADWLAQMEKVKAAGKFAIPDQALVFNSIAEMYGVTGDVSTWGIDWESKTTRIDPAVMTSVLEKFVAMQPLTSGTSRNDQATKDLFVTNQLAFHTIGPWVNPTYVEAVENSGLKYDFVLMPGETADKHGGIKNFEIVGVAPGENLDLAFEFATYITAKEQMARWAKLLSRYNSNDAAMAEADVAALPLVARSVAAVEVTMDVSPPYLIQPVPACYQSTVVDYVSATADGEFTPEEGAAEMIAELNDCLAGEGHHHHHH | soluble
17 | MEDLEHGVASNGLRYGFYRVESESAAICIAARGGSSFEPPGKYGIAHLTEHMIFRGNEYLQDGELDRAVELSGGEANAYTTRELILLCAEFVSDSLARVAEKLFLAVSARRLVEGEFERERAVVEAEVKGLISSPESRIYRLAHASAWGDSHLGRPIEGYPETVANISKADVEEYKASVFSPERMSLAIVGRISRLEALRVVKLFSQLEPGGKVREPETPEPRTTFLREERGIEAAYAALTLPLPPRSGLANVLARLRGVVFNLEAGATSILFKEVREERGLAYGFNVDVHITSWGSSMSLIVLEGNRDRVGELFDAMTRSLERALRGGYPESEWREGRRRLYRFYTRREAISNMERADALSAVILFHEKPFTLEDLVNQTLSSEWSLEEFLRLPRGLALIV | not soluble
